Results as given in patent US20140219956A1.

Biological target: TROP-2 (EGP-1, epithelial glycoprotein-1) (human) (UniProt P09758)
Assay: cell-based or functional assay

TROP-2 (EGP-1, epithelial glycoprotein-1) (human), sequence (P09758 27-323): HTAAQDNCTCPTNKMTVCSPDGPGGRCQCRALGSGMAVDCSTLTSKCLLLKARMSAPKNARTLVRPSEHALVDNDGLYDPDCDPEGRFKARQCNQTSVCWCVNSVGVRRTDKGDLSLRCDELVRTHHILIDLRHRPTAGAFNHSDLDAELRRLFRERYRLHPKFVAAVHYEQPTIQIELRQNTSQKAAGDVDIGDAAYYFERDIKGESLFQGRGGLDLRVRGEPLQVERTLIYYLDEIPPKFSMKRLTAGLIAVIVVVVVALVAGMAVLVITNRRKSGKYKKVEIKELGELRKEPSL

B1: hRS7 (humanized anti-TROP-2 / anti-EGP-1 antibody), unconjugated IgG (antibody, INN chains, looked up, V domains shown)
VH: QVQLQQSGSELKKPGASVKVSCKASGYTFTNYGMNWVKQAPGQGLKWMGWINTYTGEPTYTDDFKGRFAFSLDTSVSTAYLQISSLKADDTAVYFCARGGFGSSYWYFDVWGQGSLVTVSS
VL: DIQLTQSPSSLSASVGDRVSITCKASQDVSIAVAWYQQKPGKAPKLLIYSASYRYTGVPDRFSGSGSGTDFTLTISSLQPEDFAVYYCQQHYITPLTFGAGTKVEIK
  ADCC, specific lysis of BxPC-3 target cells (PBMC effectors, effector to target ratio 100:1, 33.3 nM): 8.5%
